Assay results from patent US20230064378A1 (Eli Lilly, published 2023).

B1: 5559 IgG4P KRQ 124C/378C (antibody)
heavy: QVQLVESGGGLVQPGGSLRLSCVASGFTFSHSSMNWVRQAPGKGLEWVSYISRATGAVYYADSVKGRFTISRDNAKNSLYLQMNSLRDEDTAVYYCAREPVFDYWGQGTLVTVSSASTKGPCVFPLAPCSRSTSESTAALGCLVKDYFPEPVTVSWNSGALTSGVHTFPAVLQSSGLYSLSSVVTVPSSSLGTKTYTCNVDHKPSNTKVDKRVESKYGPPCPPCPAPEFLGGPSVFLFPPKPKDTLMISRTPEVTCVVVDVSQEDPEVKFNWYVDGVEVHNAKTKPREEQFNSTYRVVSVLTVLHQDWLNGKEYKCKVSNKGLPSSIEKTISKAKGQPREPQVYTLPPSREEMTKNQVSLTCLVKGFYPSDICVEWESNGQPENNYKTTPPVLDSDGSFFLYSRLTVDKSRWQQGNVFSCSVMHEALHNHYTQKSLSLSLG
light: DIQMTQSPSAMSASVGDRVTITCRASQDISNYLAWFQQKPGKVPTRLIYAASSLQSGVPSRFSGSGSGTEFTLTISSLQPEDFATYYCLQWSSYPRTFGQGTKVEIKRTVAAPSVFIFPPSDEQLKSGTASVVCLLNNFYPREAKVQWKVDNALQSGNSQESVTEQDSKDSTYSLSSTLTLSKADYEKHKVYACEVTHQGLSSPVTKSFNRGEC
B2: 5559 IgG1A 124C/378C (antibody)
heavy: not shown
light: DIQMTQSPSAMSASVGDRVTITCRASQDISNYLAWFQQKPGKVPTRLIYAASSLQSGVPSRFSGSGSGTEFTLTISSLQPEDFATYYCLQWSSYPRTFGQGTKVEIKRTVAAPSVFIFPPSDEQLKSGTASVVCLLNNFYPREAKVQWKVDNALQSGNSQESVTEQDSKDSTYSLSSTLTLSKADYEKHKVYACEVTHQGLSSPVTKSFNRGEC
B3: 5F3 IgG4PAA (antibody, V domains shown)
VH: QVQLVESGGGLVQPGGSLRLSCAASGFTFSISSMNWVRQAPGKGLEWVSYISRATGAIYYADSVKGRFTISRNNAKNSLYLQMNSLRDEDTAVYYCAREPVFDYWGQGTLVTVSS
VL: DIQMTQSPSAMSASVGDRVTITCRASQGISNYLAWFQQKPGKVPTRLIYAASSLQSGVPSRFSGSGSGTEFTLTISSLQPEDFATYYCLQHNSYPRTFGQGTKVEIKR
B4: 5559-Alexa Fluor-647 (antibody, V domains shown)
VH: QVQLVESGGGLVQPGGSLRLSCVASGFTFSHSSMNWVRQAPGKGLEWVSYISRATGAVYYADSVKGRFTISRDNAKNSLYLQMNSLRDEDTAVYYCAREPVFDYWGQGTLVTVSS
VL: DIQMTQSPSAMSASVGDRVTITCRASQDISNYLAWFQQKPGKVPTRLIYAASSLQSGVPSRFSGSGSGTEFTLTISSLQPEDFATYYCLQWSSYPRTFGQGTKVEIK
modifications: Antibody conjugated to Alexa Fluor 647; the attachment sites are not stated and the letters do not carry the dye.
B5: 8660 IgG4P 124C/378C (antibody, V domains shown)
VH: QVQLVESGGGLVQPGGSLRLSCAASGFTFSHSSMNWVRQAPGKGLEWVSYISRATGAVYYADSVKGRFTISRDNAKNSLYLQMNSLRDEDTAVYYCAREPVFDYWGQGTLVTVSS
VL: DIQMTQSPSAMSASVGDRVTITCRASQGISNYLAWFQQKPGKVPTRLIYAASSLQSGVPSRFSGSGSGTEFTLTISSLQPEDFATYYCLQWSSYPRTFGQGTKVEIKR

Key:
human IL-4Rα on cells [1] = molecular target: T1, human IL-4Rα on cells (human, UniProt P24394 26-825); experiment: cell-based or functional assay
T1 sequence: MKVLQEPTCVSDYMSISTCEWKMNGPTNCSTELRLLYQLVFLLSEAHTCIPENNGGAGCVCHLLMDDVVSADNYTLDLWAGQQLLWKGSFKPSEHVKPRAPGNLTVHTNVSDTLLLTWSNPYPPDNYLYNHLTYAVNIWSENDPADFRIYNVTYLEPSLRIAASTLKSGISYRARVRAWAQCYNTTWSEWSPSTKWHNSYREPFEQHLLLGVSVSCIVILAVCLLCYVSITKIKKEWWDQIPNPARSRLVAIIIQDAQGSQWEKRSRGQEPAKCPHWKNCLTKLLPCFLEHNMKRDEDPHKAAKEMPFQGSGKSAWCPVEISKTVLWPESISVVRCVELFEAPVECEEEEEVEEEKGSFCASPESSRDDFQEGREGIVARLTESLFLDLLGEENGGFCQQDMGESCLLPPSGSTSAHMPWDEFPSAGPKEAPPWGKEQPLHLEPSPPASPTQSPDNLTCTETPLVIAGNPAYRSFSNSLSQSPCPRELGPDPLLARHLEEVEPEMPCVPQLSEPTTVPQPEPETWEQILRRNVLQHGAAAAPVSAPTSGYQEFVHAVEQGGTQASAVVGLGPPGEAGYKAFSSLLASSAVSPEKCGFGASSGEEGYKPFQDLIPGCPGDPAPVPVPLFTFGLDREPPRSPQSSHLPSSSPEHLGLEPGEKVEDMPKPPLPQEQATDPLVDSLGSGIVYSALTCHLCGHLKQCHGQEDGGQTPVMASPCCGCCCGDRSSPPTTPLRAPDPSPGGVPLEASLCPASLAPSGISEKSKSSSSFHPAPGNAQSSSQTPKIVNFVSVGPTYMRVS

human IL-4Rα on cells [2] = molecular target: T1, human IL-4Rα on cells; experiment: cell-based or functional assay; remark: listed apart in the source
human IL-4Rα on cells [3] = molecular target: T1, human IL-4Rα on cells; experiment: cell-based or functional assay; remark: listed apart in the source
human IL-4Rα on cells [4] = molecular target: T1, human IL-4Rα on cells; experiment: cell-based or functional assay; remark: listed apart in the source
human IL-4Rα on cells [5] = molecular target: T1, human IL-4Rα on cells; experiment: cell-based or functional assay; remark: listed apart in the source
Human C1q = molecular target: T2, Human C1q (human, UniProt P02745 23-245; P02746 28-253; P02747 29-245); experiment: ELISA, antibody coated, C1q detected with anti-C1q-HRP
T2 construct: Bought (MS Biomedical); also called complement component C1q
Procedure: The binding of the exemplified anti-IL-4Rα antibodies to human C1q was evaluated by ELISA. 96-well microplates were coated with 100 μL/well of each exemplified antibody diluted in DPBS (Dulbecco's HyClone) from 10 μg/mL to 0.19 g/mL, and incubated overnight at 4° C. The coating reagent was removed, plates were blocked with 200 μL/well casein blocking buffer (Thermo) and incubated for 2 hours at room temperature (RT). Plates were washed 3 times with wash buffer (1×TBE with 0.05% Tween 20), and 10 μg/mL Human C1q (MS Biomedical) diluted in casein blocking reagent is added at 100 μL/well and incubated for 3 hours at RT. Humanized IgG1 and humanized IgG4P isotype control antibodies were used as positive and negative controls respectively. Plates were then washed three times with wash buffer and 100 L/well of a 1:800 times dilution of Sheep anti-human C1q-HRP (Abcam #ab46191) in casein blocker was added and incubated for 1 hour at RT. The plates were then washed 6 times with wash buffer, and 100 μL/well of TMB Substrate (Pierce) was added to each well and incubated for 7 minutes. 100 μL/well of 1 N HCl was added to stop the reaction. Optical density was immediately measured at 450 nm on a colorimetric microplate reader. Data was analyzed using SoftMax Pro 7.1 Data Acquisition and Analysis Software.

human IL-4Rα on cells [6] = molecular target: T1, human IL-4Rα on cells; experiment: flow cytometry staining of primary human B cells (Th2 cells also confirmed IL-4Rα+)
Source text: Flow cytometry staining was used to assess cell purity on a BD LSRFortessa Cell Analyzer.

T2 sequence (P02745 23-245 limits assumed, chain 1 of 3): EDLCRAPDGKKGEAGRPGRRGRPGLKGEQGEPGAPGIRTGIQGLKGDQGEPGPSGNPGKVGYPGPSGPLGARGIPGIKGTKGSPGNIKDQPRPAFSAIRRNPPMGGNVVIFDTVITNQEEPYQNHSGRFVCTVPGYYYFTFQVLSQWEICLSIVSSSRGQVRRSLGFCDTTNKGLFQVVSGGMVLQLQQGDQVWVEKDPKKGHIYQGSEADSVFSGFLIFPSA
T2 sequence (P02746 28-253 limits assumed, chain 2 of 3): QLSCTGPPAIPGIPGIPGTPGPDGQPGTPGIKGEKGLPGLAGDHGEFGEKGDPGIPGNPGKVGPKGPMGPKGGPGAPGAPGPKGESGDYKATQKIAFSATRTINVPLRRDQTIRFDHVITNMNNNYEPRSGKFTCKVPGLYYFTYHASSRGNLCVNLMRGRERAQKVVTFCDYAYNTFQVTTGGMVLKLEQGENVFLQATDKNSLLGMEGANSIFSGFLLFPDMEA
T2 sequence (P02747 29-245 limits assumed, chain 3 of 3): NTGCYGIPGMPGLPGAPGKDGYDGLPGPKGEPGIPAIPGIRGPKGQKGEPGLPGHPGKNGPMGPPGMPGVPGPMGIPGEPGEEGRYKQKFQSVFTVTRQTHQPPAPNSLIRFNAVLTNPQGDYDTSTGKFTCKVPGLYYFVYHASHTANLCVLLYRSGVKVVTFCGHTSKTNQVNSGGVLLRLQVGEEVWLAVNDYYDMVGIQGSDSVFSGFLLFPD

Row | Binder | IL-4 IC50 (nM), IL-4 induced SEAP activity in HEK-Blue cells (human IL-4Rα on cells [1]) | IL-13 IC50 (nM), IL-13 induced SEAP activity in HEK-Blue cells (human IL-4Rα on cells [1]) | binding result (Human C1q) | other results
1 | B1 | 0.08 nM | 0.67 nM | no binding | Inhibition of IL-4 induced STAT6 phosphorylation, B cells IC50 (human IL-4Rα on cells [2]): 0.05 µg/mL; Inhibition of IL-4 induced STAT6 phosphorylation, T cells IC50 (human IL-4Rα on cells [2]): 0.07 µg/mL; Inhibition of IL-13 induced STAT6 phosphorylation in B cells IC50 (human IL-4Rα on cells [3]): 0.06 µg/mL; Inhibition of IL-4 induced B cell proliferation IC50 (human IL-4Rα on cells [4]): 1.32 nM; Inhibition of CD23 expression on myeloid cells, IL-4 induced IC50 (human IL-4Rα on cells [5]): 18.2 nM; Inhibition of CD23 expression on myeloid cells, IL-13 induced IC50 (human IL-4Rα on cells [5]): 5.37 nM
2 | B2 |  |  | no binding | 
3 | B3 | 3.45 nM | > 35 nM |  | 
4 | B4 |  |  |  | binding result (human IL-4Rα on cells [6]): binds
5 | B5 | 0.03 nM | 0.24 nM |  | 
